In article PMC6294806:
“And” between values parts separate entries of the source, which are not always exact repeats. Equal entries are not always repeated.

Tests used:
[1] = target: 8pG receptor: eight tandemly repeated protein G C2 domains fused to an HA epitope and the immunoglobulin C2-type extracellular-transmembrane-cytosolic domains of mouse B7-1 (mB7) (not stated (streptococcal cDNA) | mouse); assay: ELISA; 3.3-biotin (1 μg/ml serially diluted in DMEM/BSA) added to paraformaldehyde-fixed 8pG cell-based microplates, room temperature 1 hour; streptavidin-HRP and ABTS, absorbance 405 nm
[2] = target: Protein G of the commercial protein G-based microplate (UniProt P19909); assay: ELISA; sandwich ELISA on commercial protein G-based microplates coated with anti-IFN-α antibody (2 μg/ml); AGP3-biotin 1 μg/ml, 1 hour at room temperature in DMEM/BSA; streptavidin-HRP and ABTS; background absorbance

Row | Substance | fold absorbance over the commercial protein G-based microplate, 0.01 ug/mL 3.3-biotin [1] [fold] | fold absorbance over the commercial protein G-based microplate, 0.04 ug/mL 3.3-biotin [1] [fold] | fold absorbance over the commercial protein G-based microplate, 0.11 ug/mL 3.3-biotin [1] [fold] | fold absorbance over the commercial protein G-based microplate, 1 ug/mL 3.3-biotin [1] [fold] | fold absorbance over the traditional polystyrene-based microplate, 0.01 ug/mL 3.3-biotin [1] [fold] | fold absorbance over the traditional polystyrene-based microplate, 0.04 ug/mL 3.3-biotin [1] [fold] | fold absorbance over the traditional polystyrene-based microplate, 0.11 ug/mL 3.3-biotin [1] [fold] | fold absorbance over the traditional polystyrene-based microplate, 1 ug/mL 3.3-biotin [1] [fold] | other [1] | background OD 405 [2]
1 | Biotin-conjugated monoclonal mouse anti-PEG antibody 3.3 (IgG type) | 6.8 | 6.2 | 2.7 | 1.2 | 23 | 12.4 | 8.8 | 1.5 | 1.6 fold and 4.3 fold | –
2 | Biotin-conjugated monoclonal mouse anti-PEG IgM antibody AGP3 | – | – | – | – | – | – | – | – | – | 1.29
